# Test results: patent US20180362616A1 (NATIONAL INSTITUTE FOR BIOTECHNOLOGY IN THE NEGEV, published 2018)
# T1: human mesotrypsin (catalytically active) (human, UniProt P35030 81-304)
# T1 construct: mature; In the invasion assays it is the endogenous enzyme of PC3-M cells; also called active mesotrypsin; PRSS3 gene product
# T1 sequence (looked up): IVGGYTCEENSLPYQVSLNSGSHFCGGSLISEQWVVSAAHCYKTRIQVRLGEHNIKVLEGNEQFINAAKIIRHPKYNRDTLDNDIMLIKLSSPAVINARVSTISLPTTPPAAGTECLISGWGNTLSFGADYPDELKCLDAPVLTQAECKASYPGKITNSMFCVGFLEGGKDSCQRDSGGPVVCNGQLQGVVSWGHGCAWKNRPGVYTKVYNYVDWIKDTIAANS
# Assays:
# [1] = molecular target: T2, Factor XIa (human, UniProt P03951 19-625); assay: inhibition of FXIa cleavage of S-2366
# T2 construct: also called FXIa
# [2] = molecular target: T1, human mesotrypsin (catalytically active); assay: inhibition of mesotrypsin cleavage of Z-GPR-pNA
# [3] = molecular target: T3, human Kallikrein-6 (human, UniProt Q92876 22-244); assay: SPR, APPI held on nickel chip by its His tag, hK6 as analyte, 25° C.
# [4] = molecular target: T3, human Kallikrein-6; assay: inhibition of hK6 catalytic activity, slow tight inhibition mechanism
# [5] = molecular target: T4, human anionic trypsin (human, UniProt P07478 24-247); assay: inhibition of anionic trypsin cleavage of Z-GPR-pNA; slow tight-binding fit
# T4 construct: mature
# [6] = molecular target: T5, human cationic trypsin (human, UniProt P07477 24-247); assay: inhibition of cationic trypsin cleavage of Z-GPR-pNA; slow tight-binding fit
# T5 construct: mature
# [7] = molecular target: T3, human Kallikrein-6; assay: inhibition of kallikrein-6 cleavage of BOC-Phe-Ser-Arg-AMC; slow tight-binding fit
# [8] = molecular target: T1, human mesotrypsin (catalytically active); assay: inhibition of mesotrypsin cleavage of Z-GPR-pNA; competitive inhibition fit (Equation 1)
# [9] = molecular target: T1, human mesotrypsin (catalytically active); assay: cell-based or functional assay
# [10] = molecular target: T1, human mesotrypsin (catalytically active); assay: inhibition constant of soluble variant; target taken as mesotrypsin
# [11] = molecular target: T1, human mesotrypsin (catalytically active); assay: cell-based or functional assay; remark: listed apart in the source
# [12] = molecular target: T1, human mesotrypsin (catalytically active); assay: Ki against that of APPI-WT, mesotrypsin inhibition
# [13] = molecular target: T2, Factor XIa; assay: Ki of APPI-WT over Ki of APPI-M17G/I18F/F34V, FXIa
# [14] = molecular target: T1, human mesotrypsin (catalytically active); assay: Ki of APPI-WT over Ki of APPI-M17G/I18F/F34V, mesotrypsin
# [15] = molecular target: T3, human Kallikrein-6; assay: Ki of APPI-WT over Ki of APPI-M17G/I18F/F34V, kallikrein-6
# [16] = molecular target: T4, human anionic trypsin; assay: Ki of APPI-WT over Ki of APPI-M17G/I18F/F34V, anionic trypsin
# [17] = molecular target: T5, human cationic trypsin; assay: Ki of APPI-WT over Ki of APPI-M17G/I18F/F34V, cationic trypsin
# [18] = molecular target: T2, Factor XIa; assay: by the numbers: Ki (fold) for mesotrypsin over Ki (fold) for FXIa
# [19] = molecular target: T1, human mesotrypsin (catalytically active); assay: inhibition of mesotrypsin cleavage of Z-GPR-pNA; slow tight-binding fit
# [20] = molecular target: T3, human Kallikrein-6; assay: by the numbers: Ki (fold) for mesotrypsin over Ki (fold) for kallikrein-6
# [21] = molecular target: T1, human mesotrypsin (catalytically active); assay: by the numbers: Ki (fold) for mesotrypsin over Ki (fold) for this protease
# [22] = molecular target: T4, human anionic trypsin; assay: by the numbers: Ki (fold) for mesotrypsin over Ki (fold) for anionic trypsin
# [23] = molecular target: T5, human cationic trypsin; assay: by the numbers: Ki (fold) for mesotrypsin over Ki (fold) for cationic trypsin
# [24] = molecular target: T1, human mesotrypsin (catalytically active); assay: inhibition of mesotrypsin cleavage of Z-GPR-pNA; slow tight-binding fit (Equation 2)
# [25] = molecular target: T1, human mesotrypsin (catalytically active); assay: Ki of soluble variant against APPI-WT
# [26] = molecular target: T1, human mesotrypsin (catalytically active); assay: free energy change of association calculated from Ki of mesotrypsin inhibition (Equation 4), triple mutant cycle
# [27] = molecular target: T1, human mesotrypsin (catalytically active); assay: inhibition of mesotrypsin activity
# [28] = molecular target: T3, human Kallikrein-6; assay: SPR, APPI held on nickel chip by its His tag, hK6 as analyte
# [29] = molecular target: T1, human mesotrypsin (catalytically active); assay: Ki against that of APPI-WT, mesotrypsin inhibition (Equation 1)
# [30] = molecular target: T1, human mesotrypsin (catalytically active); assay: Ki against that of APPI-WT, mesotrypsin inhibition (Equation 2)
binder,measurement,setting,value
"APPI-WT (SEQ ID NO: 25), soluble, expressed in Pichia pastoris (other, Secreted from P. pastoris GS115, purified by nickel IMAC and gel filtration; also called WT APPI; not shown: N-terminal FLAG tag with the SnaBI/EcoRI-coded residues, and the C-terminal AvrII-coded residues plus His6) EVCSEQAETGPCRAMISRWYFDVTEGKCAPFFYGGCGGNRNNFDTEEYCMAVCGSAI",Ki,[1],0.41 nM
same,Ki,[2],131 nM
same,Kd,[3],7.91 nM
same,Ki,[4],2.24 nM
same,Ki,[5],0.00174 nM
same,Ki,[6],0.00627 nM
same,Ki,[7],2.23 nM
same,Ki,[8],131 nM
"APPIT11C/M17G/I18F/F34C (SEQ ID NO: 11), soluble (designed binder, not shown: AvrII site residues and C-terminal HIS6 tag) EVCSEQAECGPCRAGFSRWYFDVTEGKCAPFCYGGCGGNRNNFDTEEYCMAVCGSAI","Kcat (1/s), proteolytic resistance",[9],0.00521 s⁻¹
same,Ki,[10],149 nM
"APPI-M17G/I18F/F34V (SEQ ID NO: 8), soluble (designed binder, also called APPI 3M; APPI^3M; not shown: AvrII site residues and C-terminal HIS6 tag) EVCSEQAETGPCRAGFSRWYFDVTEGKCAPFVYGGCGGNRNNFDTEEYCMAVCGSAI",Kcat (s^-1) of hydrolysis of APPI by mesotrypsin (HPLC time course),[11],0.000429 s⁻¹
same,Ki,[1],98.4 nM
same,Ki (fold),[12],1460 fold
same,Ki (fold),[13],0.00416 fold
same,Ki (fold),[14],1460 fold
same,Ki (fold),[15],2.04 fold
same,Ki (fold),[16],1.18 fold
same,Ki (fold),[17],1.3 fold
same,Ki,[4],1.1 nM
same,specificity ratio (formula not given),[18],350000
same,Ki,[19],0.0898 nM
same,specificity ratio (formula not given),[20],715
same,specificity ratio (formula not given),[21],1
same,Ki,[5],0.00147 nM
same,specificity ratio (formula not given),[22],1240
same,Ki,[6],0.00496 nM
same,specificity ratio (formula not given),[23],1120
same,Ki,[7],1.09 nM
same,Ki,[24],0.0898 nM
"APPIM17C/I18F/F34C (SEQ ID NO: 12), soluble (designed binder, not shown: AvrII site residues and C-terminal HIS6 tag) EVCSEQAETGPCRACFSRWYFDVTEGKCAPFCYGGCGGNRNNFDTEEYCMAVCGSAI","Kcat (1/s), proteolytic resistance",[9],0.00038 s⁻¹
same,fold improvement in affinity relative to APPI-WT,[25],~2000 fold
same,Ki,[10],0.0524 nM
"APPI-F34V (SEQ ID NO: 23), soluble (designed binder, Variants were subcloned between EcoRI and AvrII of the APPI-WT pPIC9K template; not shown: AvrII site residues and C-terminal HIS6 tag) EVCSEQAETGPCRAMISRWYFDVTEGKCAPFVYGGCGGNRNNFDTEEYCMAVCGSAI",Kcat (s^-1) of hydrolysis of APPI by mesotrypsin (HPLC time course),[11],0.0161 s⁻¹
same,Ki (fold),[12],2.6 fold
same,Ki,[8],50.1 nM
same,"ΔΔGa, edge WT to F34V",[26],-0.59 kcal/mol
"APPIM17L,I18F,S19F,F34V (SEQ ID NO: 13), soluble (designed binder, also called APPI 3M G17L,S19F; not shown: His tag at the C-terminal) EVCSEQAETGPCRALFFRWYFDVTEGKCAPFVYGGCGGNRNNFDTEEYCMAVCGSAI",Ki,[27],5.38 nM
same,fold improvement in binding compared to APPI WT,[28],22.5 fold
same,Kd,[3],0.351 nM
"APPI-M17G/F34V (SEQ ID NO: 21), soluble (designed binder, not shown: AvrII site residues and C-terminal HIS6 tag) EVCSEQAETGPCRAGISRWYFDVTEGKCAPFVYGGCGGNRNNFDTEEYCMAVCGSAI",Kcat (s^-1) of hydrolysis of APPI by mesotrypsin (HPLC time course),[11],0.00371 s⁻¹
same,Ki (fold),[12],93.6 fold
same,Ki,[24],1.4 nM
same,"ΔΔGa, edge F34V to M17G/F34V",[26],-2.2 kcal/mol
same,"ΔΔGa, edge M17G to M17G/F34V",[26],-0.53 kcal/mol
"APPIT11V/M17G/I18F/F34V (SEQ ID NO: 9), soluble (designed binder, not shown: AvrII site residues and C-terminal HIS6 tag) EVCSEQAEVGPCRAGFSRWYFDVTEGKCAPFVYGGCGGNRNNFDTEEYCMAVCGSAI","Kcat (1/s), proteolytic resistance",[9],0.000347 s⁻¹
same,fold improvement in affinity relative to APPI-WT,[25],~2000 fold
same,Ki,[10],0.0499 nM
"APPIM17G/I18F/K29L/F34V (SEQ ID NO: 10), soluble (designed binder, not shown: AvrII site residues and C-terminal HIS6 tag) EVCSEQAETGPCRAGFSRWYFDVTEGLCAPFVYGGCGGNRNNFDTEEYCMAVCGSAI","Kcat (1/s), proteolytic resistance",[9],0.000535 s⁻¹
same,fold improvement in affinity relative to APPI-WT,[25],~1000 fold
same,Ki,[10],0.0891 nM
"APPI-M17G (SEQ ID NO: 18), soluble (designed binder, not shown: AvrII site residues and C-terminal HIS6 tag) EVCSEQAETGPCRAGISRWYFDVTEGKCAPFFYGGCGGNRNNFDTEEYCMAVCGSAI",Kcat (s^-1) of hydrolysis of APPI by mesotrypsin (HPLC time course),[11],0.0156 s⁻¹
same,Ki (fold),[29],39.8 fold
same,Ki (fold),[30],34.8 fold
same,Ki,[24],3.69 nM
same,Ki,[8],3.29 nM
same,"ΔΔGa, edge WT to M17G",[26],-2.26 kcal/mol
"APPI-I18F/F34V (SEQ ID NO: 20), soluble (designed binder, not shown: AvrII site residues and C-terminal HIS6 tag) EVCSEQAETGPCRAMFSRWYFDVTEGKCAPFVYGGCGGNRNNFDTEEYCMAVCGSAI",Kcat (s^-1) of hydrolysis of APPI by mesotrypsin (HPLC time course),[11],0.00535 s⁻¹
same,Ki (fold),[12],39.8 fold
same,Ki,[24],3.3 nM
same,"ΔΔGa, edge F34V to I18F/F34V",[26],-1.67 kcal/mol
same,"ΔΔGa, edge I18F to I18F/F34V",[26],0 kcal/mol
"APPI-M17G/I18F (SEQ ID NO: 22), soluble (designed binder, not shown: AvrII site residues and C-terminal HIS6 tag) EVCSEQAETGPCRAGFSRWYFDVTEGKCAPFFYGGCGGNRNNFDTEEYCMAVCGSAI",Kcat (s^-1) of hydrolysis of APPI by mesotrypsin (HPLC time course),[11],0.00291 s⁻¹
same,Ki (fold),[12],290 fold
same,Ki,[24],0.453 nM
same,"ΔΔGa, edge I18F to M17G/I18F",[26],-1.22 kcal/mol
same,"ΔΔGa, edge M17G to M17G/I18F",[26],-1.22 kcal/mol
"APPI-I18F (SEQ ID NO: 19), soluble (designed binder, not shown: AvrII site residues and C-terminal HIS6 tag) EVCSEQAETGPCRAMFSRWYFDVTEGKCAPFFYGGCGGNRNNFDTEEYCMAVCGSAI",Kcat (s^-1) of hydrolysis of APPI by mesotrypsin (HPLC time course),[11],0.0104 s⁻¹
same,Ki (fold),[12],39.8 fold
same,Ki,[8],3.29 nM
same,"ΔΔGa, edge WT to I18F",[26],-2.26 kcal/mol
